Measurements from PMC8983682 (Nature Communications, 2022).

Target: full-length N1-CA09-sNAp-130, membrane-anchored, C-terminal myc tag (Influenza A virus A/California/07/2009 …, UniProt C7FH46, stabilised)
Assay: flow cytometry on cells
Settings: one partner purified

B1: CD6 IgG (antibody, V domains shown)
VH: QVKLQESGGGLVQPKGSLKLSCAASGFTFNTYAMNWVRQAPGKGLEWVARIRSKSNNYATFYADSVKDRFTISRDDSQSMLYLQMHNLKTDDTAMYYCVRPSIYYYASGYLDVWGAGTTVTVSS
VL: QIVLSQSPAILSASPGEKVTMTCRTSSSVSYMHWYQQKPGSSPKPWIYATSNLASGVPFRFSGSGSGTSYSLTISRVEAEDAATYYCQQWNSNPPTFGGGTKLEIK
notes: copies: 2 + 2
binding result: binds
